# B1: Protein BZZ1 (Saccharomyces cerevisiae), P38822 (parent)
# chain: MSADLSIGNEIKDSFKETHKWVQNNLKWLKDIEQFYRERAKLEKDYSERLSRLSAEYFNKKSSTSVPISVGDTPTTTPGSIEAAGVVAWNEILSQTDMISKDHDQLSTDFENHVANQLSGLFTKLDMTLSKINGFNNDMVNKKDNIYHELEKAKKDYDEACSTMEMARNRYTKASNDRNKKKLDEKEMEMNKCKNEYLIKINQANRTKDKYYFQDVPEVLDLLQDVNEAKTLFLNDLWLKAASVENDLGANVSKRLQAANSVVKQNKPSLNTAIFIKHNLKNWKEPQDFVYKPSPVWHDDEKFAVPSSLEVEDLRIKLAKAENDYNSLQDKTQNELSKLSTLNKIKHEMKTNEDNINATKFYDTLKEYLNVVSPFTSHETLKLQAEVQIESIQNNVPEEYDLSTDNIDLSKTKKKSGIFSKFKHNILNVDSKPSSGGSTGNGNGGPLHITSLFNTSRRTRLGSAPNNAGEDSDNNSIRTTSTNNTKKTTQNSSDDGKNKVLYAYVQKDDDEITITPGDKISLVARDTGSGWTKINNDTTGETGLVPTTYIRISSAATVKANDRGPAPEVPPPRRSTLPVRTMEAIYAYEAQGDDEISIDPGDIITVIRGDDGSGWTYGECDGLKGLFPTSYCK
# partner: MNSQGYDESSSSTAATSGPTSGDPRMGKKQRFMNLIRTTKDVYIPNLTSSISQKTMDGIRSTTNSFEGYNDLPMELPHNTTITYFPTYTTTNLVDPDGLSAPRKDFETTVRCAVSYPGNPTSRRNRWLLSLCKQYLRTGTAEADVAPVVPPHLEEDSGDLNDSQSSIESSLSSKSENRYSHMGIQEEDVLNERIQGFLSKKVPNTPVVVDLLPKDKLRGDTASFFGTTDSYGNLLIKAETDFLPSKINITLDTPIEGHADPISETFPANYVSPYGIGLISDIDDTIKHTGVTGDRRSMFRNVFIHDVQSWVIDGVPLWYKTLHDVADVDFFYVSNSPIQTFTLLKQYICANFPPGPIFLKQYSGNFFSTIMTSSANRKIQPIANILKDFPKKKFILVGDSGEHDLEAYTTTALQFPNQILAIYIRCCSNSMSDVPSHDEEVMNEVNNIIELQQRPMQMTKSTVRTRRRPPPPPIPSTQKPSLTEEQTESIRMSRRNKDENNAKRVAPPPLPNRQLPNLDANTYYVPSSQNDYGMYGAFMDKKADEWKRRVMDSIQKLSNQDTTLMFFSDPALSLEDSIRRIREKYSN
# B2: Protein BZZ1 (Saccharomyces cerevisiae), P38822 (parent)
# chain: B1 chain
# B3: High osmolarity signaling protein SHO1 (Saccharomyces cerevisiae), P40073 (parent)
# chain: MSISSKIRPTPRKPSRMATDHSFKMKKFYADPFAISSISLAIVSWVIAIGGSISSASTNESFPRFTWWGIVYQFLIICSLMLFYCFDLVDHYRIFITTSIAVAFVYNTNSATNLVYADGPKKAAASAGVILLSIINLIWILYYGGDNASPTNRWIDSFSIKGIRPSPLENSLHRARRRGNRNTTPYQNNVYNDAIRDSGYATQFDGYPQQQPSHTNYVSSTALAGFENTQPNTSEAVNLHLNTLQQRINSASNAKETNDNSNNQTNTNIGNTFDTDFSNGNTETTMGDTLGLYSDIGDDNFIYKAKALYPYDADDDDAYEISFEQNEILQVSDIEGRWWKARRANGETGIIPSNYVQLIDGPEEMHR
# Variants of: B1
# Settings: with app1_yeast APP1, P53933
row,effect of a mutation on the interaction,Variant
1,decreasing interaction,W531S;W615S

# Variants of: B2
# Settings: with las17_yeast LAS17, Q12446
# Target sequence in this assay (Q12446 whole entry): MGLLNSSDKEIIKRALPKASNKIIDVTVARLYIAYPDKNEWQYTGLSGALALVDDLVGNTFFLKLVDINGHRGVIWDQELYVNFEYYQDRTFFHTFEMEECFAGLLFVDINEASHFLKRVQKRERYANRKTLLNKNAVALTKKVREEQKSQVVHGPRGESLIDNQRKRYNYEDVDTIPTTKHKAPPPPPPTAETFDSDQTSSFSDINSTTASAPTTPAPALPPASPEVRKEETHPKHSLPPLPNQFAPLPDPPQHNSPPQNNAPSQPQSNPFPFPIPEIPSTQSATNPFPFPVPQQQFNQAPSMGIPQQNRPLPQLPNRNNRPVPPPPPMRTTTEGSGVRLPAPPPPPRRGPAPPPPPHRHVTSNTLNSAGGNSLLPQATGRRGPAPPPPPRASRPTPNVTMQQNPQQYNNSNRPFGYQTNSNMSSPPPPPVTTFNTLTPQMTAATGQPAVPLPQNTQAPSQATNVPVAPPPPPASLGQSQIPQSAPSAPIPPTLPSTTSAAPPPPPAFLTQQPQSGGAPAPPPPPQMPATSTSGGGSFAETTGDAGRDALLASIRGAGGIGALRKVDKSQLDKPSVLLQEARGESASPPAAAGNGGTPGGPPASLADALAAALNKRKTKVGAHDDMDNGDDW
row,effect of a mutation on the interaction,Variant
1,decreasing interaction,W531S
2,decreasing interaction,W615S
3,decreasing interaction,W531S;W615S

# Variants of: B3
# Settings: with las17_yeast LAS17, Q12446
# Target sequence in this assay (Q12446 whole entry): as above
row,effect of a mutation on the interaction,Variant
1,decreasing interaction,P352A

# Source: IntAct's records for PubMed 11743162
